According to patent US20250276075A1, “METHODS OF TREATING AXL-EXPRESSING CANCERS WITH ANTI-AXL ANTIBODIES, ANTIBODY FRAGMENTS AND THEIR IMMUNOCONJUGATES” (BIOATLA, INC., priority 2020, published 2025):
Numbering of substitutions follows the chain as printed. Names may count otherwise.

T1: Axl (Homo sapiens, UniProt P30530)
T1 sequence (P30530 26-451 limits assumed): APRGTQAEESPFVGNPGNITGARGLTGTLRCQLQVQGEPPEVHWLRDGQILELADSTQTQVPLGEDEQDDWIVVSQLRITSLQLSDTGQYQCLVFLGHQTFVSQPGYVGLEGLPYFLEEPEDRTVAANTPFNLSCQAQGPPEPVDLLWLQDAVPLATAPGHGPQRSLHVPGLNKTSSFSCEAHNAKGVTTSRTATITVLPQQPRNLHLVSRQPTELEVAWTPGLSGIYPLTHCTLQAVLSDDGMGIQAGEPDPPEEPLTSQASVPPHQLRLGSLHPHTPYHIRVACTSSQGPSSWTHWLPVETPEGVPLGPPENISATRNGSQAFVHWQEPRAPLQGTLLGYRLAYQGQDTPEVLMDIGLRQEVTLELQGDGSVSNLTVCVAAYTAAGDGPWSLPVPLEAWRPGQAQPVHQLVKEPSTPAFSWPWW

B1: LC-F092N (antibody, V domains shown)
VH: EVQLVQSGAEVKKPGATVKISCKVSGYSFTGHTMNWIRQPPGKGLEWIGLIKPSNGGTSYNQKFKGRVTISADKSISTAYLQWSSLKASDTAMYYCAHGHYESYFAMDYWGQGTLVTVSS
VL: DIQMTQSPSSLSASVGDRVTITCKASQDVSSAVAWYQQKPGQAPRLLIYWASTRHTGVPSRFSGSGSGTEFTLTISSLQPDDFATYYCQEHNSTPLTFGQGTKVEIK
B2: LC-P095D (antibody, V domains shown)
VH: B1 VH
VL: B1 VL with N92F, P95D
B3: LC-H091C (antibody, V domains shown)
VH: B1 VH
VL: B1 VL with H91C, N92F
B4: LC-H091I (antibody, V domains shown)
VH: B1 VH
VL: B1 VL with H91I, N92F
B5: LC-P095A (antibody, V domains shown)
VH: B1 VH
VL: B1 VL with N92F, P95A
B6: LC-A051N (antibody, V domains shown)
VH: B1 VH
VL: B1 VL with A51N, N92F
B7: LC-F092S (antibody, V domains shown)
VH: B1 VH
VL: B1 VL with N92S
B8: LC-P095K (antibody, V domains shown)
VH: B1 VH
VL: B1 VL with N92F, P95K
B9: LC-W050F (antibody, V domains shown)
VH: B1 VH
VL: B1 VL with W50F, N92F
B10: HC-E102R (antibody, V domains shown)
VH: B1 VH with E102R
VL: B1 VL with N92F
B11: LC-H091F (antibody, V domains shown)
VH: B1 VH
VL: B1 VL with H91F, N92F
B12: HC-S059I (antibody, V domains shown)
VH: B1 VH with S59I
VL: B1 VL with N92F
B13: LC-H091L (antibody, V domains shown)
VH: B1 VH
VL: B1 VL with H91L, N92F
B14: LC-P095S (antibody, V domains shown)
VH: B1 VH
VL: B1 VL with N92F, P95S
B15: LC-P095C (antibody, V domains shown)
VH: B1 VH
VL: B1 VL with N92F, P95C
B16: LC-A051P (antibody, V domains shown)
VH: B1 VH
VL: B1 VL with A51P, N92F
B17: LC-T094C (antibody, V domains shown)
VH: B1 VH
VL: B1 VL with N92F, T94C
B18: LC-P095E (antibody, V domains shown)
VH: B1 VH
VL: B1 VL with N92F, P95E
B19: LC-A051I (antibody, V domains shown)
VH: B1 VH
VL: B1 VL with A51I, N92F
B20: LC-H091Q (antibody, V domains shown)
VH: B1 VH
VL: B1 VL with H91Q, N92F
B21: LC-P095H (antibody, V domains shown)
VH: B1 VH
VL: B1 VL with N92F, P95H

Molecular target: Axl (UniProt P30530)
Experiment: ELISA, 1:9 dilution
Details: not given

Molecule	Affinity ELISA CPE mutant ratio (1:9, pH 6.0/7.4)
B1	2
B2	2.89
B3	3.02
B4	2.15
B5	2.99
B6	2.2
B7	2.94
B8	3.47
B9	3.5
B10	3.42
B11	2.12
B12	2.06
B13	2.08
B14	3.51
B15	2.63
B16	1.57
B17	1.77
B18	7.51
B19	2.14
B20	2.01
B21	2.75

Molecular target: Axl (UniProt P30530)
Experiment: ELISA, 1:3 dilution
Details: not given

Molecule	Affinity ELISA CPE mutant ratio (1:3, pH 6.0/7.4)
B1	1.93
B2	3.95
B3	4
B4	1.55
B5	2.52
B6	1.41
B7	3.18
B8	3.84
B9	2.25
B10	3.7
B11	1.6
B12	30.5
B13	2.8
B14	2.84
B15	2.35
B16	1.92
B17	1.42
B18	7.12
B19	2.24
B20	1.77
B21	2.5

Molecular target: T1, Axl
Experiment: Affinity ELISA of CPE mutant antibodies for binding to Axl at pH 6.0 over pH 7.4
Details: heavy chain variable region mutants; 1:3 dilution
Excerpt: The DNA encoding the wild-type antibody was evolved to generate a mutant antibody library using Comprehensive Positional Evolution (CPE), which each position in the template antibody is randomized one at a time. Each mutant antibody in the library has only one single point mutation. The mutant antibodies in the library were generated by simultaneously screening for selective binding affinity to Axl at pH 6.0 over pH 7.4 by ELISA. Two mutant antibody dilutions were used: 1:3 and 1:9 dilutions. The mutant antibodies that have at least 1.5 ratio of binding affinity at pH 6.0 to at pH 7.4 under either 1:3 or 1:9 dilution are selected as conditionally active antibodies, with the single point mutations indicated in each of the heavy chain and light chain variable region (Tables 1 and 2).
A wild-type antibody to Axl was selected as the template antibody (with a heavy chain variable region of 063-hum10F10-HC in FIG. 1A and a light chain variable region of […]). The DNA encoding the wild-type antibody was evolved to generate a mutant antibody library using Comprehensive Positional Evolution (CPE), a method by which each position in the template antibody is randomized one at a time. Each mutant antibody in the library has only one single point mutation. The mutant antibodies in the library were generated by simultaneously screening for selective binding affinity to Axl at pH 6.0 over pH 7.4 as determined by ELISA.
Simultaneously, the expression level of the mutant antibodies was also optimized for the purpose of higher fields in a manufacturing process. The screening was done in serum using a FLAG tag because there were human antibodies in the serum which might cause false positives for the screening. The screening buffer was a carbonate buffer (Krebs buffer with ringer-standard buffer but different from PBS). […] Some of the selected mutant antibodies (scFv) were represented in FIG. 2 with their higher activity at pH 6.0 than at pH 7.4, while their activity ratios between pH 6.0 to pH 7.4 were at least 11 fold (FIG. 3).

Molecule	Affinity ELISA CPE mutant ratio (1:3, pH 6.0/7.4)
B10	3.701
B12	30.492

Same assay, conditions: heavy chain variable region mutants; 1:9 dilution

Molecule	Affinity ELISA CPE mutant ratio (1:9, pH 6.0/7.4)
B10	3.416
B12	2.055

Same assay, conditions: light chain variable region mutants; 1:3 dilution

Molecule	Affinity ELISA CPE mutant ratio (1:3, pH 6.0/7.4)
B1	1.933
B2	3.949
B3	4.003
B4	1.550
B5	2.523
B6	1.412
B7	3.179
B8	3.840
B9	2.245
B11	1.603
B13	2.798
B14	2.841
B15	2.350
B16	1.920
B17	1.423
B18	7.121
B19	2.241
B20	1.770
B21	2.504

Same assay, conditions: light chain variable region mutants; 1:9 dilution

Molecule	Affinity ELISA CPE mutant ratio (1:9, pH 6.0/7.4)
B1	2.004
B2	2.889
B3	3.025
B4	2.154
B5	2.987
B6	2.200
B7	2.937
B8	3.468
B9	3.504
B11	2.116
B13	2.081
B14	3.512
B15	2.630
B16	1.569
B17	1.768
B18	7.511
B19	2.139
B20	2.010
B21	2.754
